Assay results reported in patent publication US20210283168A1, “BETA GLUCAN AND CD40 AGONIST COMBINATION IMMUNOTHERAPY” (HiberCell, Inc., priority 2018, published 2021).
“Also recorded” adds a separate entry of the source.

B1: ADC-1013 (antibody, chains of the INN, looked up, V domains shown)
VH: EVQLLESGGGLVQPGGSLRLSCAASGFTFSTYGMHWVRQAPGKGLEWLSYISGGSSYIFYADSVRGRFTISRDNSENALYLQMNSLRAEDTAVYYCARILRGGSGMDLWGQGTLVTVSS
VL: QSVLTQPPSASGTPGQRVTISCTGSSSNIGAGYNVYWYQQLPGTAPKLLIYGNINRPSGVPDRFSGSKSGTSASLAISGLRSEDEADYYCAAWDKSISGLVFGGGTKLTVL

How the values were obtained:
[1] = system: KPC-derived PDAC cell line (7940B, P9); experiment: subcutaneous KPC-derived PDAC tumor model: tumor growth and overall survival; details: for anti-tumor activity / impact on tumor growth (in words): mouse, in vivo
CD40 [2] = target: T1, CD40 (Homo sapiens, UniProt P25942); details: binding to CD40; ADC-1013: even under acidic conditions (pH 5.4); read-out: binding affinity (Kd); cited from earlier work
T1 sequence (P25942 21-277): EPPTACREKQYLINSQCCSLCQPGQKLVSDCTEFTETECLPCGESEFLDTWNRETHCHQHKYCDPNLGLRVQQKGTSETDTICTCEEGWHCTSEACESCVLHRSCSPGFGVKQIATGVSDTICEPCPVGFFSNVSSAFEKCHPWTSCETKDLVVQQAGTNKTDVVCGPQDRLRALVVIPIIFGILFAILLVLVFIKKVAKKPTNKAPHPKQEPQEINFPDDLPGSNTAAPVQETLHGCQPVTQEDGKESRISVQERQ

[3] = target: CD40 ligand interaction with CD40 (Homo sapiens, UniProt P25942); details: cited from earlier work
CD40 ligand interaction with CD40, sequence (P25942 21-277): as above

CD40 [4] = target: T1, CD40; details: cited from earlier work; for dependence on crosslinking for activity: CD40 stimulation
FcR = details: cited from earlier work
B cell = details: cited from earlier work
B cell lymphoma lines = details: cited from earlier work
FcgRIIIa = FcgRIIIa (Homo sapiens, UniProt P08637); details: non-fucosylated, derived from dacetuzumab; cited from earlier work
FcgRIIIa, sequence (P08637 17-254): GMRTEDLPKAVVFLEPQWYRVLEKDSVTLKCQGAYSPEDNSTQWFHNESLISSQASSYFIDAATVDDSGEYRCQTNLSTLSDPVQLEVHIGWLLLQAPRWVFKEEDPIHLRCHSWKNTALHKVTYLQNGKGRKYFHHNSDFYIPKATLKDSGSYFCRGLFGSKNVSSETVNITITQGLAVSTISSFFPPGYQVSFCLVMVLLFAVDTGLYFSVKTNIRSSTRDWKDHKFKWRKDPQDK

[5] = intravenous infusion, more than 400 human subjects; cited from earlier work

Molecule	anti-tumor activity / impact on tumor growth (in words) [1]	Kd (CD40 [2]) [nM]	ability to block CD40 ligand binding [3]	dependence on crosslinking for activity (CD40 [4])	agonist activity (CD40 [4])	further results
Nc1ccn([C@@H]2O[C@H](CO)[C@@H](O)C2(F)F)c(=O)n1 [Gemcitabine, reference compound]	no significant impact on tumor growth	–	–	–	–	–
CP-870,893: anti-CD40 IgG2 antibody (Pfizer and VLST)	–	0.348	does not block CD40 ligand interaction with CD40	can mediate CD40 stimulation in the absence of cross-linking	–	FcR binding (FcR): poor
Dacetuzumab: humanized IgG1 antibody recognizing CD40 (Seattle Genetics)	–	1	enhances CD40 ligand binding to CD40	–	partial agonist	activity in stimulating B cell proliferation (B cell): weak activity; anti-proliferative and pro-apoptotic properties against B cell lymphoma lines (B cell lymphoma lines): potent anti-proliferative and pro-apoptotic properties
SEA-CD40: non-fucosylated humanized IgG1 anti-CD40 antibody derived from dacetuzumab (Seattle Genetics)	–	1	–	–	improved agonist activity	binding to FcgRIIIa (FcgRIIIa): enhanced binding
β(1,6)-[poly-(1,3)-D-glucopyranosyl]-poly-β(1,3)-D-glucopyranose [IMPRIME PGG]	limited activity as monotherapy; also recorded: minimal activity	–	–	–	–	safety of systemic administration [5]: administered safely; delay in tumor outgrowth / anti-tumor activity, previous experiment ([1]; previous experiment (data not shown)): 3 of 9; delay in tumor outgrowth (mice with delayed tumor growth) ([1]; single dose day 0: FGK45 0.1 mg i.p., IMPRIME PGG 1.2 mg i.v., gemcitabine 120 mg/kg day -2): 1 of 10
B1	–	0.01	–	activity dependent on FcR binding and crosslinking	–	–
